# Measurements as given in the supplement of paper PMC12042874.
# ± gives the uncertainty stated by the source.
# Test: amyloid nucleation score (Sup35N fusion, yeast selection) (log enrichment); library NNK3; higher = more nucleation; inactive = no reads after selection
# Procedure, shortened: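 Output and input plasmid inserts were sequenced by Illumina after psi-negative yeast carrying Sup35N fused to peptides of 20 random codons had been induced 24 hours with 100 μM copper sulfate and grown 7 days at 30°C on medium lacking adenine and uracil. The nucleation score is the DiMSum log enrichment of output over input reads, centred on the mode score of non-aggregating sequences. Sequences with under 100 input reads were excluded.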
row,Substance,amyloid nucleation score
1,DILEVIDIF,inactive
2,DIQTLPKLDLVFFVWAILEL,inactive
3,DISSILVNTWLFDWKLNP,inactive
4,DITRGCGVKDRKVVPASGLA,inactive
5,DIVCNFVT,inactive
6,DIVYQARCA,inactive
7,DKKVSISRVSR,inactive
8,DKMKQKAQKVEDLHMAIGDD,inactive
9,DKTCMVKPT,inactive
10,DLAYIGVFLIMFCFTSVDSM,-0.225 ± 0.58
11,DLCGNPVPVQSSGLGYDGLV,inactive
12,DLFKMRLGTERGY,inactive
13,DLGMLERC,inactive
14,DLGRNYIVNGIL,inactive
15,DLITSRSVLFVIVVL,inactive
16,DLSREQLGCVVGVQAECMKG,0.37 ± 0.41
17,DLTSIVWSRAYVVSY,inactive
18,DLWHPMSY,-0.466 ± 0.84
19,DLWIYIVLYVVAHVALYKDG,inactive
20,DMKLPVCSKMPLFMLVIKFK,inactive
21,DMSSSGITGTEFRCNYYHEY,inactive
22,DNCEDEDKNRRNVRLYRGWV,inactive
23,DNIGSCHDSRAYVS,inactive

row,Substance,amyloid nucleation score
1,DNISHLAFCFNMALWYSNQS,1.23 ± 0.14
2,DNLFSETSYVVRFARFL,inactive
3,DNLPTRRYLNKNDWRGASYL,inactive
4,DNVIYPASYGVVRRNTRHGF,inactive
5,DPLLLNRFGNCMLTLWVIVR,inactive
6,DPRRGIPIKPQMINTVQM,inactive
7,DPTVVGWEYMVSRFCLSRFT,inactive
8,DQAIVLVNFVSASSVPPKIF,0.498 ± 0.25
9,DQMIEDRNWNGVNDYSYNAC,inactive
10,DRCCLLHYT,inactive
11,DRCGVFNTPYLVNSELILC,inactive
12,DRFEMPDVLWCRDYCNIARS,inactive
13,DRIDRDGRRIECQWGRGGVM,inactive
14,DRLHSCYCCTIVHRFYRNYD,inactive
15,DRLYGVSFVDF,inactive
16,DRNCRLIHYFIQ,inactive
17,DRNRCIVYTHGEISRLQ,inactive
18,DRQLDDGGTRNKFIKCLVAR,inactive
19,DRTTSVGPYSAVLGFMCDWW,inactive
20,DRVSANLTFLSS,inactive
21,DSFILLDTSTHTNTTAYGKC,inactive
22,DSQCLVWYIRFAYNERSHRK,inactive
23,DSQVSTTGVMEDRYLPILCF,inactive

row,Substance,amyloid nucleation score
1,DSRFEWLLTLYYRFYLHNGR,inactive
2,DSRKRKVRF,inactive
3,DSSKFLLTCHLWCG,inactive
4,DSSKV,inactive
5,DSSLKMGCKGWNVYVGATLV,0.866 ± 0.16
6,DSSSDGSLTYDRGRSRSLFE,inactive
7,DSTDFRVLRGRRSRGEYVRG,inactive
8,DSVYGMHGKTTFT,inactive
9,DSYYFPRQGWMY,inactive
10,DTITRSTWIVCWRTE,inactive
11,DTMSKPSLLLGIPCVTHDVA,inactive
12,DTQQENCRTRGVRRGPRFCG,inactive
13,DTRFWTARLLYFFI,inactive
14,DTVMGSCDEFYLFASRHLCL,inactive
15,DTYRV,inactive
16,DVALTWPCYVDTTKCQMIMY,inactive
17,DVAWHRSACEYLFM,inactive
18,DVAYFNAFY,inactive
19,DVCEGEIYDPDSLKWFYQFL,inactive
20,DVCTLSELSVFPSLSISQ,inactive
21,DVEFI,inactive
22,DVFRVMDNLLFWKGTLALIQ,inactive
23,DVGSR,inactive

row,Substance,amyloid nucleation score
1,DVLGVSSASERAFGFENRAL,inactive
2,DVLRVPMNEVTNWSIPPY,inactive
3,DVMEVNLVPRAFNLCSSSGL,inactive
4,DVMKVMDRINKRGDNSNYVC,inactive
5,DVNLRTSHYAF,inactive
6,DVRIIAV,inactive
7,DWFSMVSRSGVDLKSVKRFG,inactive
8,DWLDLSGVSCH,-0.11 ± 0.62
9,DWTRFPSAFTGVQKSLVD,inactive
10,DWYMTVW,inactive
11,DYDGWESCFHFS,inactive
12,DYIYILSW,inactive
13,DYKRSMGFGWLTFVPYLAGN,inactive
14,DYLPFHLMERDKVALAPWWA,inactive
15,DYRVNCFTCLYVVEVSHSHD,1.84 ± 0.061
16,DYVFPRVYRGS,inactive
17,DYVPIKFYRYYEILNVCRVV,inactive
18,EARLTSLCKKQYEF,inactive
19,EAVSCWSRKNMVRYGNGDRA,inactive
20,ECLRLDCGTSRLYYYHLITM,0.814 ± 0.24
21,ECMRNTPLTQSTATTMTTGF,inactive
22,ECTSF,inactive
23,ECVCCRYYLVCGGPILRQDL,inactive

row,Substance,amyloid nucleation score
1,EDLVISNIFGWFGCLGLVYT,inactive
2,EDNRTTVVFTGEC,inactive
3,EDVSSNIRWRHTGKGETVVM,inactive
4,EDVYFSYGDVWMVIGALTTV,inactive
5,EEGCYHLLNNLGRNCSECNG,inactive
6,EFAGCKRRMRKGPIIVPADV,inactive
7,EFDDRACYDDTV,inactive
8,EFFCWIDSSIGSRYFSMTED,inactive
9,EFITSYMFSFVYVKNLWCKY,inactive
10,EFLQWFDFLQMMAPSLRSAN,inactive
11,EFQNFLVSFYEMYLQSPK,inactive
12,EFTNMYLPNSQQEVRFLQGL,inactive
13,EFVDSLLKRGGLFRVFGASS,inactive
14,EFVSDLDTDEVGLHCFCWCP,inactive
15,EGKARGDH,inactive
16,EGPGDEIFVSG,inactive
17,EGYACIVYCLGPINLLMWCT,inactive
18,EHNAKEHITLGLTSWPNRLG,inactive
19,EHPLMSSSVSSTNMFNYAQI,inactive
20,EHWCFINFLELICYQYLFLP,inactive
21,EIYCFRCVVIGIYYLVTIID,inactive
22,EKITFGECWKACSAF,inactive
23,EKKCIQRRFFYSVFNLMLSF,-0.714 ± 1

row,Substance,amyloid nucleation score
1,EKLVTCKDYFNRASTVTSLG,inactive
2,EKNNNRDGTDAVVIGNHKAG,inactive
3,EKYWNN,inactive
4,ELCVRQLCY,inactive
5,ELDGMTYASDHAFCISRNSS,inactive
6,ELLCLIYMDLHVCWQGLTMQ,inactive
7,ELLHKAF,inactive
8,ELLSCLKIWDIL,inactive
9,ELTEDLVDL,inactive
10,ELVGQF,inactive
11,ELVYDLDRYDGGLGVKNEEW,inactive
12,EMNLLFIVDAIELCPVLQAR,inactive
13,EMNSTFW,inactive
14,EMNVLCGTYKFQFGVASGVD,-0.385 ± 0.73
15,EMSFY,inactive
16,EMTGTYEVCFMT,inactive
17,ENAYLRSCRVVVKESSNVVV,-0.906 ± 1.4
18,ENIVCLAGKQHNHEMG,inactive
19,ENNRCYYKMF,inactive
20,ENSIVADTGPAV,inactive
21,ENTAYWDLSGRLANQLGWRL,inactive
22,ENYLSPTSKMTMIWGCILWW,inactive
23,EPCSLPTSGPMGMVGNIKSG,inactive

row,Substance,amyloid nucleation score
1,EPGILLM,inactive
2,EPQYDSYTGGVSAFVVLKEH,inactive
3,EQIGGI,inactive
4,ERALIDSHPGTWLRRMTVNR,inactive
5,ERMQHGSLSVRYFKKSSVSG,inactive
6,ERVNVVR,inactive
7,ESCWHLAEVRVIYGHRSMRP,0.854 ± 0.2
8,ESGNSSAFMAVMRISGTDVV,inactive
9,ESKTCVVHLSAKCSLSEERT,inactive
10,ESNVVPLNSHR,inactive
11,ESPAASMVLHRGRLVVCSLS,inactive
12,ESVRGRLFRV,inactive
13,ESWCM,inactive
14,ESYLQRPRTSTRMFVMRLKV,inactive
15,ESYRTKFIVFGWGL,0.835 ± 0.12
16,ETAYSASVRDT,inactive
17,ETDCRSAQSIC,inactive
18,ETSITHLGILAVLGCNNGSE,inactive
19,EVAWVYEYQL,inactive
20,EVDLLSVNPGVYWDLDWIWF,-0.292 ± 0.88
21,EVFLIIIVKMVNGLSRESRC,inactive
